Source: US20240116985A1 (published 2024)
Starred links: 1 amine or outer side, 2 acyl side, 3 side chain; linkers in the order of their positions; H or OH if unused. Positions of bridges follow the written chain, without caps; N, C: chain ends. Non-standard residues stand in square brackets, D forms with d. Primed or numbered codes have the meaning given here. PyrS2″ = (S)-3-amino-1-((pent-4-en-1-yloxy)carbonyl)pyrrolidine-3-carboxylic acid (stapling residue), C=CCCCOC(=O)N1CC[C@@](N[*:1])(C(=O)[*:2])C1; B5(16) = 2-amino-2-(pent-4-en-1-yl)hept-6-enoic acid = 2,2-bis(4-pentenyl)glycine (stitching residue), C=CCCCC(CCCC=C)(N[*:1])C(=O)[*:2]; B5(4) = 2,2-bis(4-pentenyl)glycine = 2-amino-2-(pent-4-en-1-yl)hept-6-enoic acid (stitching residue), C=CCCCC(CCCC=C)(N[*:1])C(=O)[*:2]; B5(21) = 2-amino-2-(pent-4-en-1-yl)hept-6-enoic acid, bis(4-pentenyl)glycine (stitching residue), C=CCCCC(CCCC=C)(N[*:1])C(=O)[*:2]; SeN = (S)-5-(((allyloxy)carbonyl)(methyl)amino)-2-amino-2-methylpentanoic acid, C=CCOC(=O)N(C)CCC[C@](C)(N[*:1])C(=O)[*:2]; (EtSSEt)AspE = (S)-2-amino-4-(2-(ethyldisulfaneyl)ethoxy)-4-oxobutanoic acid, CCSSCCOC(=O)C[C@H](N[*:1])C(=O)[*:2]; B5 = 2-amino-2-(pent-4-en-1-yl)hept-6-enoic acid, C=CCCCC(CCCC=C)(N[*:1])C(=O)[*:2]; Phe(2-Cl) = N[C@@H](Cc1ccccc1Cl)C(=O)O; Bta = N[C@@H](Cc1csc2ccccc12)C(=O)O; αAllylPro = C=CC[C@@]1(C(=O)O)CCCN1; tBuAla = CC(C)(C)C[C@H](N)C(=O)O; 3Thi = N[C@@H](Cc1ccsc1)C(=O)O

T1: full-length beta-Catenin (Uniprot ID P35222) (Homo sapiens (Human), UniProt P35222 1-781)
T1 construct: The assay protocol says 'full-length'; also called bCat; B-Catenin
T1 sequence: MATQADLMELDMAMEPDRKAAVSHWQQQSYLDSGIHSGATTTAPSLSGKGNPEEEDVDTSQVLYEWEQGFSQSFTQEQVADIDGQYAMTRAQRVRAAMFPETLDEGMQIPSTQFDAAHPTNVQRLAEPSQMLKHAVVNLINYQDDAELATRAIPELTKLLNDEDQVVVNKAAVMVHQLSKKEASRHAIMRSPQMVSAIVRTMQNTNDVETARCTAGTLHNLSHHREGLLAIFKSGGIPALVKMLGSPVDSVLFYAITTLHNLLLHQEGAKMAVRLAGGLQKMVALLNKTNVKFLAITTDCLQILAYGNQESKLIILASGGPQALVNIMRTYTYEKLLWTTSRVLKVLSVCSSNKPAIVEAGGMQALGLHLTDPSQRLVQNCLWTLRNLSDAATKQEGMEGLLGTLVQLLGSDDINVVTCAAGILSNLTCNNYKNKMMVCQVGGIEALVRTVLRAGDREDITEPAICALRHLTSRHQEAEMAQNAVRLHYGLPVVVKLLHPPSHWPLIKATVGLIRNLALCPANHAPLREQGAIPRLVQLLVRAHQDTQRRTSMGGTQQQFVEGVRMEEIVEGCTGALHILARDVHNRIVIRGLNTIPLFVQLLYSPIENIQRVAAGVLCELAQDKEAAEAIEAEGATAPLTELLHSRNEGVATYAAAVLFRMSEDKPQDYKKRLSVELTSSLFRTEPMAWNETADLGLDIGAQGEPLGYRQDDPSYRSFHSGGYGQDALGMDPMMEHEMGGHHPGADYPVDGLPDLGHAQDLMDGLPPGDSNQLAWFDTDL

T2: full-length beta-Catenin (Uniprot ID P35222) (Homo sapiens (Human), UniProt P35222 2-781)
T2 construct: Used at 10 nM in the FP probe solution as 'full-length'; Also used here for the endogenous beta-catenin of the DLD1 TCF/LEF reporter cells (functional rows); also called bCat; B-Catenin
T2 sequence: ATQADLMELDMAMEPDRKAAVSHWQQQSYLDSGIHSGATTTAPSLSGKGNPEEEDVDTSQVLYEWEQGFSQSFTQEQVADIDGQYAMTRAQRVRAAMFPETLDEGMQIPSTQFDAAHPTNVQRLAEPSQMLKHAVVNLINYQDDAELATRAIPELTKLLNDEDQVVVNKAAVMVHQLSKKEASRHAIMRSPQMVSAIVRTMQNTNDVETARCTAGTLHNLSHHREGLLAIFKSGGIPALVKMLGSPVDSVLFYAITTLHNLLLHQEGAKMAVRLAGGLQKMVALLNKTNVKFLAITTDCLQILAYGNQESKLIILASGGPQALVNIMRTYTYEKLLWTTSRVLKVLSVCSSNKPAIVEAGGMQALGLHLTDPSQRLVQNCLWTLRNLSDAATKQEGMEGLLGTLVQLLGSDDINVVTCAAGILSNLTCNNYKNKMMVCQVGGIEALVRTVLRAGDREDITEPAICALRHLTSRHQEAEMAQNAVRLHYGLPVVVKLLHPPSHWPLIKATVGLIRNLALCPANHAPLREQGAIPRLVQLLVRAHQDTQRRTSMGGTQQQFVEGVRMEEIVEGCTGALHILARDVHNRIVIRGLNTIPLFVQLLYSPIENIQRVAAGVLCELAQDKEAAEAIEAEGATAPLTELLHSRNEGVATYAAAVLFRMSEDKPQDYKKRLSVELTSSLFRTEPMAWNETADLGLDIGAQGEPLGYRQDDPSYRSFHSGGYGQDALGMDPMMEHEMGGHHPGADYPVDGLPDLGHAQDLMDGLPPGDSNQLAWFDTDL

T3: B-cat-Halo (beta-catenin HaloTag Nano-BRET construct) (UniProt P35222 1-781)
T3 sequence (looked up): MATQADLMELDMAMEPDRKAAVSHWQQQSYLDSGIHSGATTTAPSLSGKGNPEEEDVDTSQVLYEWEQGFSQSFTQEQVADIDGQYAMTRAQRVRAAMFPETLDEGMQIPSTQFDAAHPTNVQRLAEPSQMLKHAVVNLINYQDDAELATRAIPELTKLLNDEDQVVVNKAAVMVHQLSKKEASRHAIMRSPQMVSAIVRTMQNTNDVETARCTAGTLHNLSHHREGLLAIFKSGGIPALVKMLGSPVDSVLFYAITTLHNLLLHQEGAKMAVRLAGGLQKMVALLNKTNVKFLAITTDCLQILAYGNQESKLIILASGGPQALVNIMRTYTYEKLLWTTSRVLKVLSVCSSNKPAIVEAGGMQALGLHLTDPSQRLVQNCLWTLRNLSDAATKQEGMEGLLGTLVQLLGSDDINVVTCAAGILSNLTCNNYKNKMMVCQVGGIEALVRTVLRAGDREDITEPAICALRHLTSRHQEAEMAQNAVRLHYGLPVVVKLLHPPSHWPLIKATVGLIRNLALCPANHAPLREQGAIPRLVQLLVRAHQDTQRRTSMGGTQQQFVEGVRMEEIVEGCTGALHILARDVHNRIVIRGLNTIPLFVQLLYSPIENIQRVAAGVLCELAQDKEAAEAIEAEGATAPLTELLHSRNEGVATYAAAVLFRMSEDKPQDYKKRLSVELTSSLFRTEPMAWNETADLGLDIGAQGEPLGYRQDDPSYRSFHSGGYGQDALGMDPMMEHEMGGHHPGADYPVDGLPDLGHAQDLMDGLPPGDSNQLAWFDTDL

T4: beta-catenin in DLD1 TCF/LEF luciferase reporter cells (UniProt P35222 1-781)
T4 sequence (looked up): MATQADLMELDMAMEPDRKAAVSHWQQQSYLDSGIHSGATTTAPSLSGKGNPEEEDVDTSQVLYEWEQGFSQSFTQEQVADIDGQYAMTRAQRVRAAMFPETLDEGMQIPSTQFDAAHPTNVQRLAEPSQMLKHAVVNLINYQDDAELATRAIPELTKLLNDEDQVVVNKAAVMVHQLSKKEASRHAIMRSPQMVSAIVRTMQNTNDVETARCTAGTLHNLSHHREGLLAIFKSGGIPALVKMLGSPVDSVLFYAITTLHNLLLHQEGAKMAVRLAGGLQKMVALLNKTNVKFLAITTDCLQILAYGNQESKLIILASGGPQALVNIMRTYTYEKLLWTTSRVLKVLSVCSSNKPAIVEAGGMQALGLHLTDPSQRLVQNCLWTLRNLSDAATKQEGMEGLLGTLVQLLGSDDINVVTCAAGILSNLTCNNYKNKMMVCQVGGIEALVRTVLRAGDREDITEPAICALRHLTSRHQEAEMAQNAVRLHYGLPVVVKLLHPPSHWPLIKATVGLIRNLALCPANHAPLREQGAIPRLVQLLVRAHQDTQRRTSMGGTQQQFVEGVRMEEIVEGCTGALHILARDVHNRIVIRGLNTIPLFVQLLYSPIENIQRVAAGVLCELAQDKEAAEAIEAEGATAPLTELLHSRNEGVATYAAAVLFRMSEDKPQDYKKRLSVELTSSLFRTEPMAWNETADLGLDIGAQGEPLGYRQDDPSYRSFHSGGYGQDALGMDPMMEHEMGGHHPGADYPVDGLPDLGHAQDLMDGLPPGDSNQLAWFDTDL

T5: B-cat-Halo (beta-catenin HaloTag construct expressed in HEK293 cells) (UniProt P35222 1-781)
T5 sequence (looked up): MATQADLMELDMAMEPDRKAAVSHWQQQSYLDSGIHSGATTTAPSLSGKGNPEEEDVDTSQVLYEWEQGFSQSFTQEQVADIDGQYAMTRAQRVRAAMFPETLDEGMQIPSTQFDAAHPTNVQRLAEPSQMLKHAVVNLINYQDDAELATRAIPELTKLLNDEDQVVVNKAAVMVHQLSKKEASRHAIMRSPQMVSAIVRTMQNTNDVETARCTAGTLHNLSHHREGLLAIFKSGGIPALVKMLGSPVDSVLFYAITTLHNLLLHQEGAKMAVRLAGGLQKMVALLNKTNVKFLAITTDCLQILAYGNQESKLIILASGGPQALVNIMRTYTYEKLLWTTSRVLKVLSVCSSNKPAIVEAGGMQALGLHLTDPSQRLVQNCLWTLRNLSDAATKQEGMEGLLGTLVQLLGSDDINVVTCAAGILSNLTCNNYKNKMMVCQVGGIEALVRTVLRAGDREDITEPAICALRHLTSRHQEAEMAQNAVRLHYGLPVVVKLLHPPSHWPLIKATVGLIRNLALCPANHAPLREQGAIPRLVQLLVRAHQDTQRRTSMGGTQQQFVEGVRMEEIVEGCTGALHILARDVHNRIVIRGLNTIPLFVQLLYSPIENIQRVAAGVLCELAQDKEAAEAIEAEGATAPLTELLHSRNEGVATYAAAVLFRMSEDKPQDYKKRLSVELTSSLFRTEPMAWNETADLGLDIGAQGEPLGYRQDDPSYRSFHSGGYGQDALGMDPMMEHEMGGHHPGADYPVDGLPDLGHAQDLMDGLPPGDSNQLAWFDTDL


What was measured:
[1] = target: T1, full-length beta-Catenin (Uniprot ID …); assay: fluorescence polarization competition; full-length beta-catenin, 5FAM-TCF4(10-53) probe as competitor
Protocol: (§1) The plate was incubated protected from light for 60 minutes at 20° C. prior to read. Reads were performed on a CLARIOstar plate reader (BMG Labtech) in duplicate, and data were fitted to a 1:1 binding model with hill slope using an in-house script. All provided concentrations are final concentrations.

[2] = target: T2, full-length beta-Catenin (Uniprot ID …); assay: fluorescence polarization competition; 10 nM full-length beta-catenin + 10 nM 5FAM-TCF4 10-53 as competitor probe
Protocol: as §1

[3] = target: T3, B-cat-Halo (beta-catenin HaloTag …); assay: cell-based or functional assay
[4] = target: T4, beta-catenin in DLD1 TCF/LEF luciferase …; assay: cell-based or functional assay
[5] = target: T5, B-cat-Halo (beta-catenin HaloTag …); assay: cell-based or functional assay

IC50 [1] | EC50 [2] | Binder | further results
 | 0.012 µM | Ac-[αAllylPro]DF[B5(16)]DDAAFT[PyrS2″][Phe(2-Cl)][Bta]Q-NH2 (staple 1-4, 4-11, Stapled (stitched) peptide composition) [I-1043] | 
 | 0.006 µM | Ac-[αAllylPro]DF[B5(4)]DDAAFT[PyrS2″][Phe(2-Cl)][Bta]S-NH2 (staple 1-4, 4-11, Stapled (stitched) peptide composition) [I-1049] | 

The next lines start with the binder.

Binder | IC50 [1] | EC50 [2] | further results
Ac-[αAllylPro]DA[B5(4)]DDAAFV[SeN]FWQ-NH2 (staple 1-4, 4-11; not fully specified; printed as Ac-PL3-Asp-Ala-B5-Asp-Asp-Ala-Ala-Phe-Val-SeN-Phe-Trp-Gln-NH2, Same description as I-53) [I-54: Ac-PL3-Asp-Ala-B5-Asp-Asp-Ala-Ala-Phe-Val-SeN-Phe-Trp-Gln-NH2 (stapled peptide)] | 3.19 µM |  | 
Ac-[αAllylPro]DA[B5(21)]DDAAFV[SeN]FWQ-NH2 (staple 1-4, 4-11, Same description as I-54) [I-53: Ac-PL3-Asp-Ala-B5-Asp-Asp-Ala-Ala-Phe-Val-SeN-Phe-Trp-Gln-NH2 (stapled peptide)] | 5 µM |  | 
Ac-[αAllylPro][(EtSSEt)AspE][tBuAla][B5(4)]DDAAFL[PyrS2″][3Thi][Bta]Q-NH2 (staple 1-4, 4-11) [I-1963] |  |  | NanoBRET Abs IC50 [3]: 25.6 µM
Ac-[αAllylPro]D[tBuAla][B5]DDAAFN[PyrS2″][3Thi][Bta]S-NH2 (staple 1-4, 4-11) [I-815] |  |  | DLD1 4% Abs IC50 [4]: 10.3 µM; NanoBRET Abs IC50 [5]: 15.4 µM
